Assay results as given in US20100285039A1, “B7-H1 (CD274) Antagonists Induce Apoptosis of Tumor Cells” (THE JOHNS HOPKINS UNIVERSITY, priority 2008, published 2010).

Columns and labels:
[1] = biological target: wild type murine B7-H1 expressed on P815 cells (B7-H1/P815) (mouse) (UniProt Q9EP73); assay: cell-based or functional assay
B7-H1/P815 cells = assay: Staurosporine induced apoptosis (annexin V/PI); type: cell-based, mouse; settings: Staurosporine (STP 1 μM), control Ig-treated cells
Method: PD-1Ig fusion protein or control IgG were coated on 96 well-plates for 18 hr at 4° C. Full length B7-H1/P815 cells were cultured with STP (1 μM) in the well coated PD-1Ig or control IgG. Cells were harvested after 24 hr and stained with annexin V (BD PharMingen) at 5 μl/test, propidium iodide (PI) (Sigma-Aldrich) at 5 μg/ml for 1 hour and monoclonal antibodies against H-2D^d. Apoptosis was calculated as the percentage of annexin V+PI-cells gated in the H-2D^d+ fractions.
B7-H1 was assayed to determine whether it confers resistance to drugs which induce apoptosis of tumor cells. […] Staurosporine is often used as a general method for inducing apoptosis of tumor cells.

Sequence of wild type murine B7-H1 expressed on P815 cells (B7-H1/P815) (mouse) (Q9EP73 19-290): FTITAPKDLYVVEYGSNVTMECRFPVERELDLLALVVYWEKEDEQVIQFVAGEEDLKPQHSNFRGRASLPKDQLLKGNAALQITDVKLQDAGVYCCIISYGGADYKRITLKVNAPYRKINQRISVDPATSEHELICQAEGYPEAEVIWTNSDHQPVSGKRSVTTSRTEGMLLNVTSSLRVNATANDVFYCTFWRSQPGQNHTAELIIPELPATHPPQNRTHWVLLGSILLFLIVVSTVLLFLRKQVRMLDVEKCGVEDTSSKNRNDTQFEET

Row | Molecule | cytolytic activity of CTLs against B7-H1/P815 targets [1] | apoptosis of B7-H1/P815 cells (B7-H1/P815 cells)
1 | wild type murine PD-1 expressed on transduced PD-1KO 2C CTLs (PD-1/PD-1^02C) (from UniProt Q02242 25-288) (receptor) | 50% | 
2 | CN[C@@H]1C[C@H]2O[C@@](C)([C@@H]1OC)n1c3ccccc3c3c4c(c5c6ccccc6n2c5c31)C(=O)NC4 [Staurosporine] |  | 74.9%
